Values of other authors in article PMC11932923.

Molecular target: IL-36R (Homo sapiens) (UniProt Q9HB29)
Assay: Biacore SPR

Chain of UniProt Q9HB29 (Q9HB29 20-575): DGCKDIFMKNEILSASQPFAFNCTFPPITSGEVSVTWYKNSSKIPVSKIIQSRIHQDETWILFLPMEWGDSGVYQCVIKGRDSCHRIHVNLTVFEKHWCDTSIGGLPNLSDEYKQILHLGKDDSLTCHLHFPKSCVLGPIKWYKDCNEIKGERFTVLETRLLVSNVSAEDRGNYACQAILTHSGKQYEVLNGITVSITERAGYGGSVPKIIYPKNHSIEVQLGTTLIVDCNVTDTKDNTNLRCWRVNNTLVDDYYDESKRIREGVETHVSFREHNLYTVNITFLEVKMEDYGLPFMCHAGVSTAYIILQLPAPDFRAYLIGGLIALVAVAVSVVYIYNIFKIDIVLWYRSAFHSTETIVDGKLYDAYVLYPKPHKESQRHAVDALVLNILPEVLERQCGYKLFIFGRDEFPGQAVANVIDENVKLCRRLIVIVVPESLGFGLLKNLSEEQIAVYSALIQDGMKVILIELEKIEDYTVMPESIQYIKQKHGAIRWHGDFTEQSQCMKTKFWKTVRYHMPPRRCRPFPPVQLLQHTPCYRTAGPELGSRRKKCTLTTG

- Kd: 7 pM
Substance: IL-36β (N-terminally truncated) (from UniProt Q9NZH7)
